Assay: yeast display, Sf9 membrane polyspecificity reagent, FACS + sequencing; frameworks hold sequencing errors
How it was run: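 Synthetic nanobody libraries on Saccharomyces cerevisiae BJ5465 were galactose-induced for 36–48 hours, stained 1 hour at 4 °C with 10% biotinylated, detergent-solubilized Sf9 membrane reagent and enriched on streptavidin microbeads. FACS then separated cells into low and high (top ~1%) gates by anti-HA (expression) and streptavidin (reagent binding) fluorescence. Genes were colony-PCR amplified, MiSeq 2 × 250 sequenced and CDR-length filtered. A clone's polyreactivity label is that of its gate of origin.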

| Sequence | polyreactivity (PSR sort gate) |
| --- | --- |
| QVQLVESGGGLVQAGGSLRLSCAASGSIFAWYAMGWYRQAPGKERELVATITWSGGSTYYADSVKGRFTISRDNAKNTVYLQMNSLKPEDTAVYYCAAEVVGICYDLWYQGDYWGQGTQVTVSS | low polyreactivity |
| QVKLVESGGGLVQAGGSLRLSCAASGRIFYYYAMGWYRPAPGKERELVAGITTGGGTNYADSVKGRFTISRDNAKNTVYLQMNSLKPEDTAVYYCATGTEGYSDDYGYWGQGTQVTVSS | low polyreactivity |
| QVQLEESGGGLVQAGGSLRLSCAASGRIFSGYAMGWYRQAPGIERELVAAIDSVGDTYYADSVKVRFTISRDNAKNTVYLQMNSLKPEDTAVYYCAAERTVRMVLSPTDEMDYWGQGTQVNVSS | low polyreactivity |
| QVQLVESGGGLVQAGGSLRLSCAASGRTFGRNAMGWYRQAPGKERELVAAINGNGGRTSYADSVKGRFTISRDNAKNTVYLPMNSLKPEDTAVYYCNKYTPGWYRYYYWGQGTQVTVSS | high polyreactivity |
| QVQLVESGGGLVQAGGSLRLSCAASGSTFTTYAMGWYRQAPGKERELVAAISKSGGSTYYADSVKGRFTISRDNAKNTVYLQMNSLKPEDTAVYYCATSFRSTARKYGYWGQGTQVTVSS | high polyreactivity |
| QVQLVESGGGLVQAGGSLRLSCAASRSTFEIYAMGWYRPAPGKERELFAAISSGGSTNYADSVKGRFTISRDNAKNTVYLQMKSLITEDTAVYYCVYAIQFYYWGQGTQVTVSS | low polyreactivity |
| QVQLVESGGGLVQAGGSLRLSCAASGRIFKYYAMGWSRQAPGKERELVPAINRDGGRTYYADSVKGRFTISRDNAKNTVYLQMNSLTPEETAVYYCAASYGYVYTTSLDYWGQGTQVTVSS | low polyreactivity |
| QVQLVESGAGLVQAGGSLRVSCAASGSTFDSYAMGLYRQAPGKERELVAAITNGGSTYYADSVKGRFTISRDHAKNTVYLQMNRLKPEDTAVYDCATEDYLLDYLYDYWGPGTQVTVSS | low polyreactivity |
| QVQLVESGGGLVQAGGSLRLSCAASGSTFRIYAMGWYRQAPGKERELVAAISRSGGSTYYADSVKGRFTISRDNAKNTVYLQMNSLKPEDTAVYYCAAQPSYRYYKSYDYWGQGTQVTVSS | high polyreactivity |
| QDKLVESGGGLVQAGASLRLTCAASGLIIYRNAMGWYIQAPGKERELVATISRRGGRTYYADSVKGRFTISRDNAKNNVYLQMNSLKPEDTAVYYCIADDYRSRGGYDSWGQGTQVTVSS | high polyreactivity |
| QVQLVESGGGLVQAGGSLRLSCAASGSTFAYYVMGWYRQAPGKERELVAAITSSGGRTYYADSVKGRFTISRDNAKNTVYLQMNSQKPEDTAVYYCAKVSQRRVDNSDYDYWGQGTQVTVSS | high polyreactivity |
| QVQLVESGGGLVHAGGSLRLSCAASGRTFHGYAMGWYIQAPGKERELVAAITSSGARTYYADSVKGRFTISRDNAKNTVYLQMNSLKPEDTAVYYCAVNWLRGMDWGQGTQVTVSS | high polyreactivity |
| QVQLVESGGGLVQAGGSLRLSCAASGFIFRGYAMGWYRQAPGKERELVAAINSGGSTNYADSVKGRFTISRDNAKNTVYLQMNSLKPEDTAVYYCAARVKTSYRYLRTYNYWGQGTQVTVSS | high polyreactivity |
| QVQLVESGGGLVQSGGSLRLSCAASGIIFEYYDMGWYRQAPGKEREFVAAIDSGGSTYYADSVKGRFTISRDNAKNTVYLQMNSLKPEDTAVYYCAASRPPNTSNTGYGSWGQGTQVTVSS | low polyreactivity |
| QVQLVESGVGLVQAGGSVRLSCAASGRTFTRYAMGWYRQAPGKEREWVAAITWSGGSTYYADSVKGRFTISRDNAKNTVYLQMNSLKPEDTAVYYCNAQRYGLFGSEHGYWGQGTQVTVSS | high polyreactivity |
| QVQLVESGGGLVQAGGSLRLSCAASGSIFYYYAMGWYRQAPGKERELVASITSGGRTYYADSVKGRFTISRDNAKNTVYFQMNSLKPEDTAVYYCAAVYGGLTLTRNYYWGQGTQVTVSS | high polyreactivity |
| QVQLVESGGGLVQAGGSLRLSCAASGFTLRYYAMGWYRQAPGKERELVAAITSGGGSTYYADSVKGRFTISRDNAKNTVYLQMNSLKPEDTAVYYCNAQYGSLYYAVVLSNIYNYWGQGTQVTVSS | high polyreactivity |

From the nanobody polyreactivity screen of Harvey et al. (2022)
